The text below walks through data of patent US20150139990A1 (DAINIPPON SUMITOMO PHARMA, published 2015).

Positions count from the first letter of the chain named. Names and notes keep the numbering of the source.

In assay [1] the target is T1, human CD81 mutant L165A (human, UniProt P60033 1-236, limits assumed).
T1 construct: as m30; not shown: C-terminal V5 and 6xHis tags
T1 sequence: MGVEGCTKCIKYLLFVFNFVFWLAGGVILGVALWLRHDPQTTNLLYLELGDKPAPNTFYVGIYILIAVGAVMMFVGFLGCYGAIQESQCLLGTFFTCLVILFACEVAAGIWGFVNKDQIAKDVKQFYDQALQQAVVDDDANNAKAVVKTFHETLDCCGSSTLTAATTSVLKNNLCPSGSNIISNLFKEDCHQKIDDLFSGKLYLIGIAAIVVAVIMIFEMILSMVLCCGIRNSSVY
The assay is described as follows: ELISA.

Assay [2] addresses T2, human CD81 mutant V169A (human, UniProt P60033 1-236, limits assumed).
T2 construct: as m30; not shown: C-terminal V5 and 6xHis tags
T2 sequence: T1 sequence with A165L, V169A
The assay is described as follows: ELISA.

Assay [3] deals with T3, human CD81 mutant A164T (human, UniProt P60033 1-236, limits assumed).
T3 construct: as m30; not shown: C-terminal V5 and 6xHis tags
T3 sequence: T1 sequence with A164T, A165L
Put plainly: ELISA.

Assay [4] concerns the target T4, human CD81 mutant V135A (human, UniProt P60033 1-236, limits assumed).
T4 construct: as m30; not shown: C-terminal V5 and 6xHis tags
T4 sequence: T1 sequence with V135A, A165L
Put plainly: ELISA.

The target in assay [5] is T5, human CD81 mutant S168T (human, UniProt P60033 1-236, limits assumed).
T5 construct: as m30; not shown: C-terminal V5 and 6xHis tags
T5 sequence: T1 sequence with A165L, S168T
Put plainly: ELISA.

Assay [6] concerns the target T6, human CD81 mutant V169L (human, UniProt P60033 1-236, limits assumed).
T6 construct: as m30; not shown: C-terminal V5 and 6xHis tags
T6 sequence: T1 sequence with A165L, V169L
The assay is described as follows: ELISA.

Assay [7] addresses T7, human CD81 mutant A164V (human, UniProt P60033 1-236, limits assumed).
T7 construct: as m30; not shown: C-terminal V5 and 6xHis tags
T7 sequence: T1 sequence with A164V, A165L
Put plainly: ELISA.

Assay [8] deals with T8, human CD81 on CD81-expressing cells (Jurkat E6.1, human PBMC, Ramos) (human, UniProt P60033 1-236).
T8 sequence: T1 sequence with A165L
The assay is described as follows: cell-based or functional assay.

Assay [9] has as its target T9, human CD81 mutant I194A (human, UniProt P60033 1-236, limits assumed).
T9 construct: as m30; not shown: C-terminal V5 and 6xHis tags
T9 sequence: T1 sequence with A165L, I194A
The assay is described as follows: ELISA.

For assay [10], the target named is T10, human CD81 mutant D137A (human, UniProt P60033 1-236, limits assumed).
T10 construct: as m30; not shown: C-terminal V5 and 6xHis tags
T10 sequence: T1 sequence with D137A, A165L
Put plainly: ELISA.

Assay [11] deals with T11, human CD81 mutant D137E (human, UniProt P60033 1-236, limits assumed).
T11 construct: as m30; not shown: C-terminal V5 and 6xHis tags
T11 sequence: T1 sequence with D137E, A165L
Put plainly: ELISA.

The target in assay [12] is T12, human CD81 mutant G158S (human, UniProt P60033 1-236, limits assumed).
T12 construct: as m30; not shown: C-terminal V5 and 6xHis tags
T12 sequence: T1 sequence with G158S, A165L
The assay is described as follows: ELISA.

For assay [13], the target named is T13, human CD81 mutant V135L (human, UniProt P60033 1-236, limits assumed).
T13 construct: as m30; not shown: C-terminal V5 and 6xHis tags
T13 sequence: T1 sequence with V135L, A165L
The assay is described as follows: ELISA.

For assay [14], the target named is T14, human CD81 mutant H151R (human, UniProt P60033 1-236, limits assumed).
T14 construct: as m30; also called H151B; not shown: C-terminal V5 and 6xHis tags
T14 sequence: T1 sequence with H151R, A165L
Put plainly: ELISA.

B1: 002-A07 S115N (antibody, human IgG4 S228P, lambda, V domains shown)
VH: EVQLLESGGGLVQPGGSLRLSCAASGFTFSSNYMSWVRQAPGKGLEWVSYISSSSTYTDYADSVKGRFTISRDNSKNTLYLQMNSLRAEDTAVYYCARYSYGRDNFDYWGQGTLVTVSS
VL: QSVLTQPPSASGTPGQRVTISCTGSTSNIGAGYDTHWYQQLPGTAPKLLIYGNSNRPSGVPDRFSGSKSGTSASLAISGLRSEDEADYYCQSYDTNLNVWVFGGGTKLTVLG
notes: IgG4 S228P; glycosylation site mutant of 002-A07 VL
Take B1: the relative binding affinity in [1], in [2], in assay [3], in assay [4], in assay [5] and in assay [6] was less than 20% in each case. In [7], this molecule had a relative binding affinity of less than 20%. The “Jurkat chemotaxis (% of control IgG4) at 0.001 µg/mL” value in assay [8] came out at 79%. In addition, in assay [8], the “Jurkat chemotaxis (% of control IgG4) at 0.01 µg/mL” value came to 69%. In addition, the “Jurkat chemotaxis (% of control IgG4) at 0.1 µg/mL” value in assay [8] is -4%. Besides, the “Jurkat chemotaxis (% of control IgG4) at 1 µg/mL” value in assay [8] is -11%. Besides, in assay [8], the “Jurkat chemotaxis (% of control IgG4) at 10 µg/mL” value was -9%.

B2: 002-F01 (antibody, human IgG4 S228P, lambda, V domains shown)
VH: B1 VH
VL: B1 VL with N98S, V99A
notes: IgG4 S228P
Take B2: the relative binding affinity in [1], in assay [9], in assay [2], in [3], in assay [4] and in [5] was less than 20% each time. Moreover, the relative binding affinity in [6] and in [7] was less than 20% each time. Further, in [8], the “Jurkat chemotaxis (% of control IgG4) at 0.001 µg/mL” value was found to be 89%. Further, the “Jurkat chemotaxis (% of control IgG4) at 0.01 µg/mL” value in [8] was found to be 87%. Further, the “Jurkat chemotaxis (% of control IgG4) at 0.1 µg/mL” value in assay [8] turned out to be 35%. In assay [8], the “Jurkat chemotaxis (% of control IgG4) at 1 µg/mL” value turned out to be 4%. The “Jurkat chemotaxis (% of control IgG4) at 10 µg/mL” value in assay [8] is 9%.

B3: 002-C02 (antibody, human IgG4 S228P, lambda, V domains shown)
VH: B1 VH with T56S, S63T, R98S, N105S
VL: B1 VL with S82T, N98S
notes: IgG4 S228P
Take B3: the relative binding affinity in assay [1], in assay [10], in [2], in [3], in assay [4] and in assay [11] was less than 20% throughout. For the same molecule, the relative binding affinity in assay [6] and in assay [7] was less than 20% in each case. The “Jurkat chemotaxis (% of control IgG4) at 0.001 µg/mL” value in [8] worked out at 106%. For the same molecule, in assay [8], the “Jurkat chemotaxis (% of control IgG4) at 0.01 µg/mL” value worked out at 104%. The “Jurkat chemotaxis (% of control IgG4) at 0.1 µg/mL” value in assay [8] amounted to 31%. In addition, in assay [8], the “Jurkat chemotaxis (% of control IgG4) at 1 µg/mL” value was -5%. For the same molecule, the “Jurkat chemotaxis (% of control IgG4) at 10 µg/mL” value in assay [8] is -4%.

B4: 002-B05 (antibody, human IgG4 S228P, lambda, V domains shown)
VH: B1 VH with G102S
VL: B1 VL with D34G, Q40R, N98S
notes: IgG4 S228P
With B4, the relative binding affinity in [1], in assay [10], in [2], in assay [12], in assay [3] and in [4] was less than 20% in each case. Also, the relative binding affinity in assay [13], in assay [14], in assay [6] and in assay [7] was less than 20% each time. The “Jurkat chemotaxis (% of control IgG4) at 0.001 µg/mL” value in [8] was 84%. Also, in assay [8], the “Jurkat chemotaxis (% of control IgG4) at 0.01 µg/mL” value was determined as 78%. For the same molecule, the “Jurkat chemotaxis (% of control IgG4) at 0.1 µg/mL” value in [8] was 10%. In assay [8], the “Jurkat chemotaxis (% of control IgG4) at 1 µg/mL” value is -1%. For the same molecule, in [8], the “Jurkat chemotaxis (% of control IgG4) at 10 µg/mL” value is -10%.
